Measurements: patent US20090304651A1 (published 2009)
Changes are numbered by the printed parent chain. Names may count otherwise.

B1: wild type IGF2R domain 11 (amino acids 1511-1650) with C-terminal His6 tag, from Pichia pastoris (receptor)
chain: NEHDDCQVTNPSTGHLFDLSSLSGRAGFTAAYSEKGLVYMSICGENENCPPGVGACFGQTRISVGKANKRLRYVDQVLQLVYKDGSPCPSKSGLSYKSVISFVCRPEAGPTNRPMLISLDKQTCTLFFSWHTPLACEQATHHHHHH
notes: also called WT; wild type domain 11
B2: IGF2R domain 11 E1544A (amino acids 1511-1650, C-terminal His6 tag, from Pichia pastoris) (receptor)
chain: B1 chain with E34A
B3: IGF2R domain 11 E1544K (amino acids 1511-1650, C-terminal His6 tag, from Pichia pastoris) (receptor)
chain: B1 chain with E34K
notes: also called enhanced mutant

molecular target: T1, recombinant human IGF-II (Insulin-like Growth Factor II) (human, UniProt P01344 25-91, biotinylated (Biotinyl-IGF-II, GroPep) where immobilised in SPR, site not stated; not biotinylated in ITC and as SPR analyte); test: SPR, IGF-II immobilised, steady state
T1 construct: also called IGF2; IGF-2
In short: (§1)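 Pichia pastoris-secreted, His-tag-purified domain 11 proteins were injected in duplicate over ~50 RU biotinylated IGF-II on a streptavidin Sensor Chip SA. Runs used a BIAcore 3000 at 25° C in HBS-EP at 40 μl/min, with 2 min injections and blank-flow-cell and buffer-injection subtraction. Analyte ran at 4096–8 nM, or 16384–32 nM for three constructs.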

T1 sequence (P01344 25-91 limits assumed): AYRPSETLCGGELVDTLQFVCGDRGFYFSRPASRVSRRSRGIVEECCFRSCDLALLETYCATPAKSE

| Kd [nM] | Binder |
| --- | --- |
| 103 | B1 |
| 37 | B2 |
| 16.9 | B3 |

molecular target: T1, recombinant human IGF-II (Insulin-like …); test: SPR (Biacore)

| Kd [nM] | Binder |
| --- | --- |
| 103 | B1 |
| 37 | B2 |
| 16.9 | B3 |

molecular target: T1, recombinant human IGF-II (Insulin-like …); test: SPR, IGF-II immobilised, steady state; remark: another data set of the same source
Experimental: (§2) Duplicate analyte injections were performed at concentrations of 4096, 2048, 1024, 512, 256, 128, 64, 32, 16 and 8 nM.
(§3) Kinetic analysis by Surface Plasmon Resonance (SPR) was conducted on a BIAcore 3000 biosensor (BIAcore, Uppsala, Sweden) at 25° C. in HBS-EP (10 mM HEPES, pH 7.4, 150 mM NaCl, 3 mM EDTA, 0.005% surfactant P20) at a flow rate of 40 μl/min. […] Kinetic experiments consisted of a two minute injection of analyte followed by a 100 s dissociation phase in running buffer, after which the binding surface was regenerated with a 2 minute injection of 2 M MgCl₂. A blank flow cell was used for in-line reference subtraction of changes due to differences in refractive index of running buffer versus sample and a buffer-only injection was used to subtract instrument noise and drift. Injections were performed in duplicate for each concentration and in a randomised order. Kinetic parameters were determined by global fitting of sensorgrams to a two-state (conformational change) binding model using BIAevaluation software version 4.0.1. In all cases the minor component made an insignificant contribution to the overall affinity and as such only the kinetic parameters of the major binding component were used. For each interaction the dissociation affinity constant (KD) was also calculated by fitting of the response of each concentration at equilibrium to a steady-state affinity model using BIAevaluation.

| Kd [nM] | Binder |
| --- | --- |
| 103 | B1 |
| 37 | B2 |
| 16.9 | B3 |

molecular target: T1, recombinant human IGF-II (Insulin-like …); test: SPR, IGF-II immobilised, kinetic fit
Experimental: as §2, §3

| Kd [nM] | koff [s⁻¹] | kon [M⁻¹ s⁻¹] | Binder |
| --- | --- | --- | --- |
| 102 | 0.053 | 525000 | B1 |
| 35.9 | 0.033 | 934000 | B2 |
| 15.2 | 0.023 | 1.52e+06 | B3 |

molecular target: T1, recombinant human IGF-II (Insulin-like …); test: SPR, IGF-II immobilised, kinetic fit; remark: another data set of the same source
In short: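 Pichia pastoris-secreted, His-tag-purified domain 11 proteins were injected in duplicate, in randomised order, over ~50 RU biotinylated IGF-II captured on a streptavidin Sensor Chip SA. Runs used a BIAcore 3000 at 25° C in HBS-EP at 40 μl/min, with 2 min injections, 100 s dissociation and 2 M MgCl₂ regeneration. Analyte ran at 4096–8 nM, or 16384–32 nM for three constructs. Association and dissociation rates and Kd came from global sensorgram fitting in BIAevaluation 4.0.1, after blank-flow-cell and buffer-injection subtraction.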

| Kd [nM] | koff [s⁻¹] | kon [M⁻¹ s⁻¹] | Binder |
| --- | --- | --- | --- |
| 119 | 0.0787 | 662000 | B1 |
| 45.5 | 0.0558 | 1.23e+06 | B2 |
| 20.5 | 0.0406 | 2.02e+06 | B3 |

molecular target: T1, recombinant human IGF-II (Insulin-like …); test: SPR, steady-state KD relative to wild type
Experimental: as §2, §3

| Relative Affinity | Binder |
| --- | --- |
| 1 fold (wild type = 1.00) | B1 |
| 2.79 fold (wild type = 1.00) | B2 |
| 6.12 fold (wild type = 1.00) | B3 |

molecular target: T1, recombinant human IGF-II (Insulin-like …); test: ITC, IGF-II titrated into domain 11
Experimental: Calorimetric measurements were performed using a VP-ITC microcalorimeter (MicroCal). All solutions were thoroughly degassed before use by stirring under vacuum. […] The sample cell contained either wild type domain 11 (7 uM) or the E1544A mutant (8 μM), also in HBS-E buffer. To correct for the heat effects of dilution and mixing, reaction heats obtained from a control experiment, in which IGF2 was injected into HBS-E, were subtracted. Calorimetric data were analysed using MicroCal ORIGIN software (version 5.0) supplied with the instrument. Thermodynamic parameters were derived by fitting the binding isotherms to a single-site binding model. Values for dissociation affinity constants (KD) were determined from duplicate experiments.
In order to validate the SPR sensorgram data, ITC was used to assess the binding affinity between domain 11 and IGF-II. The affinity of the E1544A mutant was also assessed by ITC in order to confirm whether use of a second technique agreed as to the apparent increase in affinity (FIG. 6 and Table 6). Titrations were performed using 17×15 μl injections of 40 μM IGF-II (after an initial 7.51 injection) into the reaction cell containing wild type domain 11 or the E1544A mutant. […] The two fold differences may be simply accounted for by the fidelity of both techniques.

| Kd [nM] | Binder |
| --- | --- |
| 150 | B1 |
| 81.4 | B2 |
| 26.4 | B3 |

molecular target: T1, recombinant human IGF-II (Insulin-like …); test: SPR, steady-state KD relative to wild type; remark: another data set of the same source
In short: as §1

| Relative Affinity | Binder |
| --- | --- |
| 1 fold (wild type = 1.00) | B1 |
| 2.79 fold (wild type = 1.00) | B2 |
| 6.12 fold (wild type = 1.00) | B3 |
